Experimental findings from US20210147526A1 (PLIANT THERAPEUTICS, published 2021) are described below.

As usually defined, the Kd is the constant that tells how readily two partners part at equilibrium. Broadly, the koff is the first-order rate constant of dissociation. Usually kon stands for a measure of how fast the partners come together.

The target in assay [1] is T1, Human Integrin α7β1 (human, UniProt Q13683 34-1038; P05556 21-728, limits assumed).
T1 construct: also called human α7β1 integrin
The assay is described as follows: comparison of the KD values of Table 8.

The target in assay [2] is T2, Mouse Integrin α7β1 (mouse, UniProt Q61738 34-1032; P09055 21-728, limits assumed).
T2 construct: also called murine α7β1 integrin
The assay is described as follows: comparison of the KD values of Table 8.

Assay [3] deals with T1, Human Integrin α7β1. The assay is described as follows: kinetics with RU read-out, integrin captured at 0.25 µg/mL, antibody as analyte, 1:1 binding model.
The target of assay [4] is T2, Mouse Integrin α7β1. The assay is described as above.
Assay [5] has as its target T3, human integrin alpha-7 (ITGA7) co-transfected with integrin beta-1 precursor (ITGB1) on HEK-293T cells, wild … (human, UniProt P05556 21-798, limits assumed).
T3 construct: whole, on cells; also called target protein; wild-type (WT) target protein
As to the kind of experiment: high-throughput flow cytometry on HEK-293T cells with ITGA7 + ITGB1 against vector alone, 0.5 µg/ml. The text has this: (§1) Conditions for binding and screening of monoclonal antibodies and Fabs using high-throughput flow cytometry were optimized using wild-type target protein cloned into a proprietary vector and expressed in HEK-293T cells. The target protein is human integrin alpha-7 (ITGA7; UniProt ID Q13683; SEQ ID NO: 24). The binding of the VL3VHK20TFT monoclonal antibody and the VL3VHK20TFT Fab to HEK-293T cells co-transfected (1:1) with integrin beta-1 precursor (ITGB1) and integrin subunit alpha 7 (ITGA7) or with vector alone (negative control) was evaluated by high-throughput flow cytometry. The antibodies 3C12, 6A11, A1-1a M20, and A1-1a M24 were used as positive controls for ITGA7 binding.
(§2) Each point in FIG. 15 and FIG. 16 represents the mean of four replicates. The optimal screening concentration for each antibody or Fab (outlined in a box) was determined based on the raw signal values and signal-to-background calculations.
(A flow cytometer gives signals particle by particle.)

For assay [6], the target named is cell surface integrin α7β1 (cells and species not stated). The assay is described as follows: cell-based or functional assay.
Assay [7] deals with T4, ITGA7 mutant W978A on HEK-293T cells (human, UniProt P05556 21-798).
T4 construct: whole, on cells; Clone of the alanine-scan library of ITGA7
The assay is described as follows: high-throughput flow cytometry on HEK-293T cells with the ITGA7 alanine mutant, high stringency, normalized to wild type. The protocol: (§3) In order to map the epitope of VL3VHK20TFT, an alanine-scan library of the target protein (ITGA7; SEQ ID NO: 24) was constructed. Shotgun mutagenesis epitope mapping was performed using the general procedure described in Davidson and Doranz, 2014, Immunology 143, 13-20. Briefly, a mutation library of the target protein was created by high-throughput, site-directed mutagenesis. Each residue was individually mutated to alanine, with alanine codons mutated to serine. The mutant library was arrayed in 384-well microplates and transiently transfected into HEK-293T cells. Following transfection, cells were incubated with the indicated antibodies (VL3VHK20TFT Fab or 6A11 monoclonal antibody (mAh)) at concentrations predetermined using an independent immunofluorescence titration curve on wild type protein. The antibodies were detected using an Alexa Fluor 488-conjugated secondary antibody, and mean cellular fluorescence was determined using Intellicyt® iQue flow cytometry platform. […] This counterscreen strategy facilitates the exclusion of mutants that are locally misfolded or that have an expression defect.
(§4) The binding of VL3VHK20TFT Fab and 6A11 mAh to each mutant clone in an alanine scanning library of ITGA7 mutants was determined, in duplicate, by high-throughput flow cytometry. For each point, background fluorescence was subtracted from the raw data, which were then normalized to antibody (Ab) reactivity with wild-type (WT) target protein. For each mutant clone, the mean binding value was plotted as a function of expression (represented by control reactivity). To identify preliminary primary critical clones (red circles), a threshold (dashed lines) of >70% WT binding to control Ab and <20% WT binding to test Abs was applied.

In assay [8] the target is T5, ITGA7 mutant R958A on HEK-293T cells (human, UniProt P05556 21-798).
T5 construct: whole, on cells; Clone of the alanine-scan library of ITGA7
The description is as above. As to the method:
as §3, §4

The target of assay [9] is T6, ITGA7 mutant M976A on HEK-293T cells (human, UniProt P05556 21-798).
T6 construct: whole, on cells; Clone of the alanine-scan library of ITGA7
Described as above. The protocol: as §3, §4

Assay [10] concerns the target T7, ITGA7 mutant W979A on HEK-293T cells (human, UniProt P05556 21-798).
T7 construct: whole, on cells; Clone of the alanine-scan library of ITGA7
The assay is described as above. As to the method:
as §3, §4

Assay [11] addresses T3, human integrin alpha-7 (ITGA7) …. As to the kind of experiment: high-throughput flow cytometry on HEK-293T cells with ITGA7 + ITGB1 against vector alone, 2.0 µg/ml.
Description: as §1, §2

The target of another assay is human α5β1 integrin (human, UniProt P08648 42-995; P05556 21-728, limits assumed). As to the kind of experiment: dose titration on integrins (FIG. 11B).
The target of a further assay is human α6β1 integrin (human, UniProt P23229 24-1011; P05556 21-728, limits assumed). As to the kind of experiment: dose titration on integrins (FIG. 11B).
Sequence of human α6β1 integrin (P23229 other isoform, or with tags, fused parts or gaps limits assumed, chain 1 of 2): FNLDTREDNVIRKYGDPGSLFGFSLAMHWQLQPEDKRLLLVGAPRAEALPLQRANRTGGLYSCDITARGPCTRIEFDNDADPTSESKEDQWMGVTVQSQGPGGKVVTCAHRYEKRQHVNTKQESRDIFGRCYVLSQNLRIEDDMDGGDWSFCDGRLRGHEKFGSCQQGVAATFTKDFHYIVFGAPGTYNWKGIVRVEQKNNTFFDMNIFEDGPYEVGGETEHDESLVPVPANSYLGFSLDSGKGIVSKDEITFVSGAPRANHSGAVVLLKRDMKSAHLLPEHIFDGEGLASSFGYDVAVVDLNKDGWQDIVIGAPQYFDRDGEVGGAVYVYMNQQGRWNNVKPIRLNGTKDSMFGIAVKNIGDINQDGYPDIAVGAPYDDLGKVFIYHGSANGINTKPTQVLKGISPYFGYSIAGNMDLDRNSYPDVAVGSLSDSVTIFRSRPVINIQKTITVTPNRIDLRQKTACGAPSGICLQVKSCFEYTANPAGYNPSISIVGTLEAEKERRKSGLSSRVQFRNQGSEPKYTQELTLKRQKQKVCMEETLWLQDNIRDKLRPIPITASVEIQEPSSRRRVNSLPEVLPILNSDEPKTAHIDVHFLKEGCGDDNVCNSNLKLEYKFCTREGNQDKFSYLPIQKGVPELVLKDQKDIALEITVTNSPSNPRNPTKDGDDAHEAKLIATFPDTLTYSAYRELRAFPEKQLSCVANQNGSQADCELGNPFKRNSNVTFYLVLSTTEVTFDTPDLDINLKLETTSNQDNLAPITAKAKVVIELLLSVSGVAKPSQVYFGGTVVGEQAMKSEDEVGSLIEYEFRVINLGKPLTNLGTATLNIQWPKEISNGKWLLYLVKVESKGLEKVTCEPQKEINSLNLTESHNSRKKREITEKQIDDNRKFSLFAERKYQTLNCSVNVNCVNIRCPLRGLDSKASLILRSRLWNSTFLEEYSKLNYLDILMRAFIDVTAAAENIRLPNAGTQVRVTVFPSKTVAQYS
Sequence of human α6β1 integrin (P05556 21-728 limits assumed, chain 2 of 2): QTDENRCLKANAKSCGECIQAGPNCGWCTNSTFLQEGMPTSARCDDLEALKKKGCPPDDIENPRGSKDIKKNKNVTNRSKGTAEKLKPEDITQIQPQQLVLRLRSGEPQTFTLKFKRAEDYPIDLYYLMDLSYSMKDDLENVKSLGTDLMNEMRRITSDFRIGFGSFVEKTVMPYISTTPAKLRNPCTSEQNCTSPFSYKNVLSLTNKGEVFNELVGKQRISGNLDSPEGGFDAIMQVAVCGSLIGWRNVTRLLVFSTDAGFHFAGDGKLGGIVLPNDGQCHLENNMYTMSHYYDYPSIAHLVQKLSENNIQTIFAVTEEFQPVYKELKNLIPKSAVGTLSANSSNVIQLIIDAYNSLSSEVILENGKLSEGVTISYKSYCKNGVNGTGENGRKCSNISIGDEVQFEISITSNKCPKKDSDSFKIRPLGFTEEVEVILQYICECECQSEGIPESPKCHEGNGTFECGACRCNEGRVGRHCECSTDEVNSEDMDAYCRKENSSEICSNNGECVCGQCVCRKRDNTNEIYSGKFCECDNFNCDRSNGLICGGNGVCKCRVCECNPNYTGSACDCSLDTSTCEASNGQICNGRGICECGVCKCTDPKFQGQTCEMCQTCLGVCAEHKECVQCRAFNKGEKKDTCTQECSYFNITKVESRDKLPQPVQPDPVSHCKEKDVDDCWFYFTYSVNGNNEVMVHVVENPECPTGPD

T1 sequence (Q13683 other isoform, or with tags, fused parts or gaps limits assumed, chain 1 of 2): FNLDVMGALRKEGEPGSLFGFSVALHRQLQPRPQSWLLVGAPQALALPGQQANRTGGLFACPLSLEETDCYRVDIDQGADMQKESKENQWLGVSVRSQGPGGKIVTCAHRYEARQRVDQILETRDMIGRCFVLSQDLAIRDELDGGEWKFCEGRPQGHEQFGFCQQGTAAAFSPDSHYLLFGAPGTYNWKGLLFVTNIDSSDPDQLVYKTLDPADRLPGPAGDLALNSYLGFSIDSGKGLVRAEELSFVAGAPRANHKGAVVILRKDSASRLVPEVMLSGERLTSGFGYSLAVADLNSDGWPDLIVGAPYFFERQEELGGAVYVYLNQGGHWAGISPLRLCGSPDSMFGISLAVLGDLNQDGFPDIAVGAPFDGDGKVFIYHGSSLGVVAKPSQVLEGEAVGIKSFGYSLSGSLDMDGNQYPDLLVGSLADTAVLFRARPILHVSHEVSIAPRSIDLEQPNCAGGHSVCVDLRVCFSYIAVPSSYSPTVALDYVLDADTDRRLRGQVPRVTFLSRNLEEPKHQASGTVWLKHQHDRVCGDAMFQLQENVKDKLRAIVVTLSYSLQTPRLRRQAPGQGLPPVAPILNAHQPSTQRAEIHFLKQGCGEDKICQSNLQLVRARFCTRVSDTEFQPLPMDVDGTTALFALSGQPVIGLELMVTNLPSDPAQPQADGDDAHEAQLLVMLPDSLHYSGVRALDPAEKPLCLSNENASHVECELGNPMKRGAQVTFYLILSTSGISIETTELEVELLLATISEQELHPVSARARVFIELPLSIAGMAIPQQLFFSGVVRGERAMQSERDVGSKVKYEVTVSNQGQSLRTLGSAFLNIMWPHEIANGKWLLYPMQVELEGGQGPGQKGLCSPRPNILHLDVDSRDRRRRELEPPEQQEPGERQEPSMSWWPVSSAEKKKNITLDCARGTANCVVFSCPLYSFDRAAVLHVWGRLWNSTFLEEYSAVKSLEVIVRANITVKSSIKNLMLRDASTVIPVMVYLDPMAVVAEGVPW
T1 sequence (P05556 21-728 limits assumed, chain 2 of 2): as the sequence (P05556 21-728 limits assumed, chain 2 of 2) above
T2 sequence (Q61738 other isoform, or with tags, fused parts or gaps limits assumed, chain 1 of 2): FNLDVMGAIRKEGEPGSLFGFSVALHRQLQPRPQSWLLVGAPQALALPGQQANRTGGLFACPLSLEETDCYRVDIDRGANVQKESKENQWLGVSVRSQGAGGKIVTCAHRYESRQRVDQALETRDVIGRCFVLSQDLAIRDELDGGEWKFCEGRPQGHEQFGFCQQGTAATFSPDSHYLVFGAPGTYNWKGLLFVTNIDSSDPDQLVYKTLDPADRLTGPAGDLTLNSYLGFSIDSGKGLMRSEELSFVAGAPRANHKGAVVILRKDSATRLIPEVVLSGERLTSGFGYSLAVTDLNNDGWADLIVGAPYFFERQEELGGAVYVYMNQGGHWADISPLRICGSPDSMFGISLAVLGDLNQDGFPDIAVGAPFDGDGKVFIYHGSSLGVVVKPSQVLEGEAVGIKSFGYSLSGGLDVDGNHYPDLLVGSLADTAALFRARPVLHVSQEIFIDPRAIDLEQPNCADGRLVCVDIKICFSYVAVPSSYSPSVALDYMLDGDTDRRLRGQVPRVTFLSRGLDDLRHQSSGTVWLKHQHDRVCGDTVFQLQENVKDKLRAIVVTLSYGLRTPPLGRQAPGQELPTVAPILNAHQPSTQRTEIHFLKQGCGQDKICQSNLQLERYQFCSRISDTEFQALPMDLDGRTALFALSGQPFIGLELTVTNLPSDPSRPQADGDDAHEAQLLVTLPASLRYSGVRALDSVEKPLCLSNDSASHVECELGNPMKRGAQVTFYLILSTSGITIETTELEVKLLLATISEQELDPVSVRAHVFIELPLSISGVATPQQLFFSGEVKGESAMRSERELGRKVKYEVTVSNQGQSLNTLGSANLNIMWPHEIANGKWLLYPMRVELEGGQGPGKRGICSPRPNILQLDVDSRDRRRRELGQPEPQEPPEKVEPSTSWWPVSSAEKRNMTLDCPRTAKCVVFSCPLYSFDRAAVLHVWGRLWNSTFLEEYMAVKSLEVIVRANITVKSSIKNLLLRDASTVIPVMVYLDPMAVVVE
T2 sequence (P09055 21-728 limits assumed, chain 2 of 2): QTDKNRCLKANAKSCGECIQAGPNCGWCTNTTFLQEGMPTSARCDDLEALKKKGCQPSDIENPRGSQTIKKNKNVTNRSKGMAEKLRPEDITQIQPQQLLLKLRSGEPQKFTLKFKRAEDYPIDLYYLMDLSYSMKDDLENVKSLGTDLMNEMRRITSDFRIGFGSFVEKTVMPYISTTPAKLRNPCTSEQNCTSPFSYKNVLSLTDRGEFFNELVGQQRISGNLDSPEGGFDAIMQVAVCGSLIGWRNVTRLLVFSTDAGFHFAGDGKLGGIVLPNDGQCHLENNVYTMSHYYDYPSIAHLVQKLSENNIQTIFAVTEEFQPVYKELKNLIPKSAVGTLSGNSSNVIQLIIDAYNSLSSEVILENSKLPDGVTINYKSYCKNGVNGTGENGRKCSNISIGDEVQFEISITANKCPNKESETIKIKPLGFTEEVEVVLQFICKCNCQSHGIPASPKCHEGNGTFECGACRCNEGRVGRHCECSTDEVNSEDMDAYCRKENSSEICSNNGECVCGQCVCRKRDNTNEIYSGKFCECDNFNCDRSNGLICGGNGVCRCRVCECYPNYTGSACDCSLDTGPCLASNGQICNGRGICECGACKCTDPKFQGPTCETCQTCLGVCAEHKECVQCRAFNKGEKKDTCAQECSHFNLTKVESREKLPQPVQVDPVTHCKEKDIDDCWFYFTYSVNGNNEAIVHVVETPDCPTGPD

B1: VL3VHK20TFT monoclonal antibody (antibody, human IgG4 S228P, kappa, V domains shown)
VH: QVQLVQSGAEVKKPGASVKVSCKASGYTFTKYWINWVRQAPGQGLEWMGIIYPGSSTSNYNEKFKTRVTMTVDTSTSTAYMELSSLRSEDTAVYYCVKNDNWGQGTLVTVSS
VL: DIQMTQSPSSLSASVGDRVTITCRASESVDNYGISFMNWFQQKPGKAPKLLIYAASDLGSGVPSRFSGSGSGTDFTLTISSLQPEDFATYYCHQSKEVPYTFGQGTKLEIKR
notes: Humanized M36/M38; also called hIgG4-36; hIgG-36
B1: the “fold lower KD than the chimera antibody VLVH” value in the assay with Human Integrin α7β1 [1] is about 3.33 fold. For the same molecule, in the assay with Mouse Integrin α7β1 [2], the “fold lower KD than the chimera antibody VLVH” value is about 11.1 fold. Moreover, in the assay with Human Integrin α7β1 [3], the Kd stood at 0.593 nM, the koff turned out to be 0.000153 s⁻¹ and the kon came to 258000 M⁻¹ s⁻¹. Further, in the assay with Mouse Integrin α7β1 [4], the Kd came out at 1.96 nM, the koff was 0.000469 s⁻¹ and the kon was found to be 239000 M⁻¹ s⁻¹. Further, the “Signal:Background” value in assay [5] is 18 ratio signal:background. Further, in [6], the “cell index (integrin α7β1 mediated cell adhesion) of DMD myoblast cells on laminin 211” value was about 5 fold.

B2: VL3VHK20TFT Fab (Fab, V domains shown)
VH: B1 VH
VL: DIQMTQSPSSLSASVGDRVTITCRASESVDNYGISFMNWFQQKPGKAPKLLIYAASDLGSGVPSRFSGSGSGTDFTLTISSLQPEDFATYYCHQSKEVPYTFGQGTKLEIK
notes: Fab of VL3VHK20TFT; also called VL3VHK20TFT Fab HS; Test Fab
Take B2: the “Binding Reactivity (% WT)” value was -0.3 % WT in assay [7], 27.8 % WT in assay [8], 29.5 % WT in [9] and -0.7 % WT in assay [10]. Besides, in assay [11], the “Signal:Background” value is 12 ratio signal:background.

B3: mouse α7β1 antibody VLVH (Chimera with human IgG4 Fc) (antibody, V domains shown)
VH: QVQLQQPGAELVKPGASVKLSCKASGYNFTKYWINWVKQRPGQGLEWIGIIYPGSSTSNYNEKFKTKATLTVEISSTTAYMQLSSLTSDDSAVYYCVRGDDWGQGTTLTVSS
VL: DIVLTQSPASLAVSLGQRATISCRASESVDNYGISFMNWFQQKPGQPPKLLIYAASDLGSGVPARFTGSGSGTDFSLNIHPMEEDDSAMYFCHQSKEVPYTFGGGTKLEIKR
notes: also called hIgG4-23; murine antibody (VLVH)
On to B3, for which, in the assay with Human Integrin α7β1 [3], the Kd came out at 1.96 nM, the koff came to 0.000652 s⁻¹ and the kon turned out to be 333000 M⁻¹ s⁻¹. In the assay with Mouse Integrin α7β1 [4], the Kd is 21.8 nM, the koff turned out to be 0.00213 s⁻¹ and the kon was found to be 97600 M⁻¹ s⁻¹.

B4: antibody M36 (antibody, V domains shown)
VH: B3 VH
VL: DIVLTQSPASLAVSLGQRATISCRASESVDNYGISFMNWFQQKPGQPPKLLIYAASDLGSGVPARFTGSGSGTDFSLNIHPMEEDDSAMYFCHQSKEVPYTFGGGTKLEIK
notes: Mouse hybridoma monoclonal antibody; also called M36 agonist antibody
Regarding B4, the binding result with human α5β1 integrin and with human α6β1 integrin was “no binding” in each case.

B5: antibody M38 (antibody, V domains shown)
VH: B3 VH
VL: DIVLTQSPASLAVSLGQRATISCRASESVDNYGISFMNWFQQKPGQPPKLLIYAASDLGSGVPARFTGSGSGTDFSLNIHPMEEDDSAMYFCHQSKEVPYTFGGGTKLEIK
notes: Mouse hybridoma monoclonal antibody
Turning to B5, the binding result with human α5β1 integrin and with human α6β1 integrin was “no binding” throughout.
